Reference: PMC4764565, “Synergistic integration of Netrin and ephrin axon guidance signals by spinal motor neurons” (eLife, 2015)

Target: T1, EphB2-GFP (mouse, UniProt P54763 19-986)
T1 construct: ephrin receptor EphB2 (plasmid Ephb2-GFP, Kao et al., 2009); also called EphB2 fused to GFP; wild-type EphB2-GFP; source: HEK293 (ATCC CRL 1573), transfected (calcium phosphate), in lysate
T1 sequence (looked up): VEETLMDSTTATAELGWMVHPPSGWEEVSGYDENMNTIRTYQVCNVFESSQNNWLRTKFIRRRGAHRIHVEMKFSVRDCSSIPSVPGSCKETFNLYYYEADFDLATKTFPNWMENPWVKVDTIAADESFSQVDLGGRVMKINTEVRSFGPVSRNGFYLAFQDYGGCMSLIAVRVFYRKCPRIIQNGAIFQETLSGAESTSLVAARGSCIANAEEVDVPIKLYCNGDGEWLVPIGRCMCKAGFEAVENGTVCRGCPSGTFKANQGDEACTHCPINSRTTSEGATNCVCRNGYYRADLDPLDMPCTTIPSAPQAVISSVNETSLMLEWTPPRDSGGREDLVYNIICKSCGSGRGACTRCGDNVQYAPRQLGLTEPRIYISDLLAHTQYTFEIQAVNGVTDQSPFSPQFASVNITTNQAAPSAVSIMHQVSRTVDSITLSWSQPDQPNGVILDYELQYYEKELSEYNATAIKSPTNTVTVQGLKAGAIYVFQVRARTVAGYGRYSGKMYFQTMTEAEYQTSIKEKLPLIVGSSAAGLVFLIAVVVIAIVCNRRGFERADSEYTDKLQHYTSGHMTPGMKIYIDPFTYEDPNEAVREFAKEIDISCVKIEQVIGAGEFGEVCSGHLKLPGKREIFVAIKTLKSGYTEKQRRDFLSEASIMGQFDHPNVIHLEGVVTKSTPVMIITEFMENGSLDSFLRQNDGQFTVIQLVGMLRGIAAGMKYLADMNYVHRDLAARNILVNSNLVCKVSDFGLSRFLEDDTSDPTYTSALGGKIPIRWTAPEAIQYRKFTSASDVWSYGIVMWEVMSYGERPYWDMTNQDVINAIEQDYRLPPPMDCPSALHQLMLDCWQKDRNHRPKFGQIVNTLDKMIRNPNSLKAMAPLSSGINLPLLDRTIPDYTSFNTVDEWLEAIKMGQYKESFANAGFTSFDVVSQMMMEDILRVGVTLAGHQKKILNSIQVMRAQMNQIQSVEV
Test: co-IP; anti-GFP antibody on ProteinA/G agarose, overnight, pre-cleared lysates of co-transfected HEK293 cells (10mM Tris-Cl pH 8, 137 mM NaCl, 2mM EDTA, 1% NP40); blot for Myc; in the ligand experiments cells were starved 2 hr in OPTIMEM and incubated 15 min at 37°C with pre-clustered Fc, eB2-Fc or eA3-Fc (1.5 μg/ml), Netrin-1 (250 ng/ml) or eB2-Fc+Netrin-1 before lysis
Details: partners not purified

fold increase of the association after pre-incubation with eB2-Fc (against Fc): ~22 fold
B1: Unc5c-Myc (receptor)
chain: not shown
notes: Netrin receptor Unc5c, mouse (plasmid mUnc5c-Myc, gift of Franck Polleux); also called mUnc5c-Myc; source: HEK293 (ATCC CRL 1573), transfected (calcium phosphate), in lysate
